Earlier results as cited in PMC8470622.
pKd: −log10 of the molar value. Values joined by “and” are separate entries in the source; they are usually repeats but may differ in a detail not shown here. Identical values can stand only once. Like-named read-outs stand apart in the source and are kept apart here.

Legend:
EGFR (Homo sapiens) [1] = biological target: EGFR (Homo sapiens) (UniProt P00533)
EGFR (Homo sapiens) [2] = biological target: EGFR (Homo sapiens) (UniProt P00533); assay: radioligand
[3] = biological target: EGFR (high-affinity state) (Homo sapiens) (UniProt P00533); assay: radioligand
[4] = biological target: EGFR (low-affinity state) (Homo sapiens) (UniProt P00533); assay: radioligand

Question: With EGF (from UniProt P01133) as the substance, how does the pKd (EGFR (Homo sapiens) [1]) read?
Answer: The pKd was 9.52 and 9.49.

Question: And the pKd (EGFR (Homo sapiens) [2])?
Answer: The pKd was 8.82.

Question: And the pKd [3]?
Answer: The pKd was 8.97.

Question: What about the pKd [4] of the same substance?
Answer: Its pKd is 8.55.
